Target: the molecule itself
Assay: cross-linking

B1: recombinant full-length human advillin (GST tag cleaved) (natural protein, UniProt O75366 1-819, looked up)
chain: MPLTSAFRAVDNDPGIIVWRIEKMELALVPVSAHGNFYEGDCYVILSTRRVASLLSQDIHFWIGKDSSQDEQSCAAIYTTQLDDYLGGSPVQHREVQYHESDTFRGYFKQGIIYKQGGVASGMKHVETNTYDVKRLLHVKGKRNIRATEVEMSWDSFNRGDVFLLDLGKVIIQWNGPESNSGERLKAMLLAKDIRDRERGGRAKIGVIEGDKEAASPELMKVLQDTLGRRSIIKPTVPDEIIDQKQKSTIMLYHISDSAGQLAVTEVATRPLVQDLLNHDDCYILDQSGTKIYVWKGKGATKAEKQAAMSKALGFIKMKSYPSSTNVETVNDGAESAMFKQLFQKWSVKDQTMGLGKTFSIGKIAKVFQDKFDVTLLHTKPEVAAQERMVDDGNGKVEVWRIENLELVPVEYQWYGFFYGGDCYLVLYTYEVNGKPHHILYIWQGRHASQDELAASAYQAVEVDRQFDGAAVQVRVRMGTEPRHFMAIFKGKLVIFEGGTSRKGNAEPDPPVRLFQIHGNDKSNTKAVEVPAFASSLNSNDVFLLRTQAEHYLWYGKGSSGDERAMAKELASLLCDGSENTVAEGQEPAEFWDLLGGKTPYANDKRLQQEILDVQSRLFECSNKTGQFVVTEITDFTQDDLNPTDVMLLDTWDQVFLWIGAEANATEKESALATAQQYLHTHPSGRDPDTPILIIKQGFEPPIFTGWFLAWDPNIWSAGKTYEQLKEELGDAAAIMRITADMKNATLSLNSNDSEPKYYPIAVLLKNQNQELPEDVNPAKKENYLSEQDFVSVFGITRGQFAALPGWKQLQMKKEKGLF
**Q.** Does B1 bind?
**A.** Result: binds

B2: recombinant full-length human villin (GST tag cleaved) (natural protein, UniProt P09327 1-827, looked up)
chain: MTKLSAQVKGSLNITTPGLQIWRIEAMQMVPVPSSTFGSFFDGDCYIILAIHKTASSLSYDIHYWIGQDSSLDEQGAAAIYTTQMDDFLKGRAVQHREVQGNESEAFRGYFKQGLVIRKGGVASGMKHVETNSYDVQRLLHVKGKRNVVAGEVEMSWKSFNRGDVFLLDLGKLIIQWNGPESTRMERLRGMTLAKEIRDQERGGRTYVGVVDGENELASPKLMEVMNHVLGKRRELKAAVPDTVVEPALKAALKLYHVSDSEGNLVVREVATRPLTQDLLSHEDCYILDQGGLKIYVWKGKKANEQEKKGAMSHALNFIKAKQYPPSTQVEVQNDGAESAVFQQLFQKWTASNRTSGLGKTHTVGSVAKVEQVKFDATSMHVKPQVAAQQKMVDDGSGEVQVWRIENLELVPVDSKWLGHFYGGDCYLLLYTYLIGEKQHYLLYVWQGSQASQDEITASAYQAVILDQKYNGEPVQIRVPMGKEPPHLMSIFKGRMVVYQGGTSRTNNLETGPSTRLFQVQGTGANNTKAFEVPARANFLNSNDVFVLKTQSCCYLWCGKGCSGDEREMAKMVADTISRTEKQVVVEGQEPANFWMALGGKAPYANTKRLQEENLVITPRLFECSNKTGRFLATEIPDFNQDDLEEDDVFLLDVWDQVFFWIGKHANEEEKKAAATTAQEYLKTHPSGRDPETPIIVVKQGHEPPTFTGWFLAWDPFKWSNTKSYEDLKAELGNSRDWSQITAEVTSPKVDVFNANSNLSSGPLPIFPLEQLVNKPVEELPEGVDPSRKEEHLSIEDFTQAFGMTPAAFSALPRWKQQNLKKEKGLF
**Q.** With B2 as the protein, how does the “stoichiometry N” value read?
**A.** The value was 2.
